Experimental data as given in the supplement of paper PMC10065799, “High-throughput profiling of sequence recognition by tyrosine kinases and SH2 domains using bacterial peptide display” (eLife, 2023).

How the values were obtained:
Fes = Fes (UniProt P07332); assay: phosphorylation enrichment, bacterial display (enrichment ratio); higher = better substrate or ligand; peptides without Tyr show the background
MERTK = MERTK (UniProt Q12866); assay: as above
Hck = Hck (UniProt P08631); assay: as above
FGFR1 = FGFR1 (UniProt P11362); assay: as above
Fyn = Fyn (UniProt P06241); assay: as above
EPHB1 = EPHB1 (UniProt P54762); assay: as above
c-Src = assay: as above
Fer (mouse) = assay: as above
Jak2 = Jak2 (UniProt O60674); assay: as above
AncSZ = assay: as above
EPHB2 = EPHB2 (UniProt P29323); assay: as above
FGFR3 = FGFR3 (UniProt P22607); assay: as above
c-Abl (mouse) = assay: as above
SHP2-C SH2 = assay: SH2 binding enrichment of the phosphorylated peptide, bacterial display (enrichment ratio); higher = better substrate or ligand; peptides without Tyr show the background
Grb2 SH2 = Grb2 SH2 (UniProt P62993); assay: as above
c-Src SH2 = assay: as above
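Wherever SH2 binding enrichment of the phosphorylated peptide, bacterial display is given: peptide library displayed on the E. coli surface as eCPX fusions, selected cells deep-sequenced, score is each peptide's frequency after selection divided by its frequency in the input.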
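Wherever phosphorylation enrichment, bacterial display is given: 11-residue human phosphosite peptides and single-mutation variants displayed on the E. coli surface, counted by deep sequencing, each peptide's frequency after selection divided by its frequency in the unselected input library; frequency after pTyr selection over input frequency; kinase dosed for 20-30% of maximal phosphorylation in three min.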

Chain of FGFR3 (P22607 whole entry, looked up): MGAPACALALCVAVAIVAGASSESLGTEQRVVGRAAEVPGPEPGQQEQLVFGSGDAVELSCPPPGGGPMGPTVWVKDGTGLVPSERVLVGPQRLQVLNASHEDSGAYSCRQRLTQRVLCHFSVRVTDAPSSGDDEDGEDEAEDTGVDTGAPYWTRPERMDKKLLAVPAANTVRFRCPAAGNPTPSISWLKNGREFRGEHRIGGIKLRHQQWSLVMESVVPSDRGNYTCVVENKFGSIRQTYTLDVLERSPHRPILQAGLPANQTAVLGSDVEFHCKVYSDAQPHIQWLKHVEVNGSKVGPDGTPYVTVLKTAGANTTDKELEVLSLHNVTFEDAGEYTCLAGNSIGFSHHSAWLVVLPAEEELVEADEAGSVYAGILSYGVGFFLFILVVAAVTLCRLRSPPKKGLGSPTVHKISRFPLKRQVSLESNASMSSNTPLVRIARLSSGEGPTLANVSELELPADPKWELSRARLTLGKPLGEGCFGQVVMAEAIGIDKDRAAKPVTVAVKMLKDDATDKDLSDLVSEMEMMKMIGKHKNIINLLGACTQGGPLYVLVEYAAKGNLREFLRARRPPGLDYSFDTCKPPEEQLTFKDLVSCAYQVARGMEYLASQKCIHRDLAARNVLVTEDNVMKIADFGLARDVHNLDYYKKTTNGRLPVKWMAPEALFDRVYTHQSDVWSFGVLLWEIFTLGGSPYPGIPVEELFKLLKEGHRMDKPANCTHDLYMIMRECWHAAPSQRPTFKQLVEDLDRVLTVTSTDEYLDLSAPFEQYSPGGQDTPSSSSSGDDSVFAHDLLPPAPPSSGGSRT
Chain of EPHB1 (P54762 whole entry, looked up): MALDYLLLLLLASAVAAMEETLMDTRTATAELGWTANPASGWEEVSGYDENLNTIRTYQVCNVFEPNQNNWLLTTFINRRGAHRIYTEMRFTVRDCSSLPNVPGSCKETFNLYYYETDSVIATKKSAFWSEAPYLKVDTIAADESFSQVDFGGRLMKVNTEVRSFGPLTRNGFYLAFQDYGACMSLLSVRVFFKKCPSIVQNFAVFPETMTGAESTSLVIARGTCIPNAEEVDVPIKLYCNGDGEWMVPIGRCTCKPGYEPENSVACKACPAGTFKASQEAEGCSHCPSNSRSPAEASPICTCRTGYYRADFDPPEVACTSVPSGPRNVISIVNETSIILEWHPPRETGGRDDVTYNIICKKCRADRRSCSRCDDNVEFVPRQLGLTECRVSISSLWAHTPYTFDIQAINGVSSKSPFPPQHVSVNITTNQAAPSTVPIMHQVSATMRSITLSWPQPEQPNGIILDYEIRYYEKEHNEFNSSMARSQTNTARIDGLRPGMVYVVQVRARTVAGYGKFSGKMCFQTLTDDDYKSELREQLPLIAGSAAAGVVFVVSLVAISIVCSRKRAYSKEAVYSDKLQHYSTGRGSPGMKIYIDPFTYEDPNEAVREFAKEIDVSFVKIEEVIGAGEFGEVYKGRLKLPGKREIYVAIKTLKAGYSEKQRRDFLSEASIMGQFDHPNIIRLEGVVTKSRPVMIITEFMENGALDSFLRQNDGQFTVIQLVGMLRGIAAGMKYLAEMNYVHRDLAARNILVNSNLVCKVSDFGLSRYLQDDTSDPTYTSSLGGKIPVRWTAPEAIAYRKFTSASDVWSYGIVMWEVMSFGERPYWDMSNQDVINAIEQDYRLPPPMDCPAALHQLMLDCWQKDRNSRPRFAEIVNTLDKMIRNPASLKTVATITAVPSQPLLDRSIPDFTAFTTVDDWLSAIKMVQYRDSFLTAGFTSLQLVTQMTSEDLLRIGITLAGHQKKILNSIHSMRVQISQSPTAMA
Chain of EPHB2 (P29323 whole entry, looked up): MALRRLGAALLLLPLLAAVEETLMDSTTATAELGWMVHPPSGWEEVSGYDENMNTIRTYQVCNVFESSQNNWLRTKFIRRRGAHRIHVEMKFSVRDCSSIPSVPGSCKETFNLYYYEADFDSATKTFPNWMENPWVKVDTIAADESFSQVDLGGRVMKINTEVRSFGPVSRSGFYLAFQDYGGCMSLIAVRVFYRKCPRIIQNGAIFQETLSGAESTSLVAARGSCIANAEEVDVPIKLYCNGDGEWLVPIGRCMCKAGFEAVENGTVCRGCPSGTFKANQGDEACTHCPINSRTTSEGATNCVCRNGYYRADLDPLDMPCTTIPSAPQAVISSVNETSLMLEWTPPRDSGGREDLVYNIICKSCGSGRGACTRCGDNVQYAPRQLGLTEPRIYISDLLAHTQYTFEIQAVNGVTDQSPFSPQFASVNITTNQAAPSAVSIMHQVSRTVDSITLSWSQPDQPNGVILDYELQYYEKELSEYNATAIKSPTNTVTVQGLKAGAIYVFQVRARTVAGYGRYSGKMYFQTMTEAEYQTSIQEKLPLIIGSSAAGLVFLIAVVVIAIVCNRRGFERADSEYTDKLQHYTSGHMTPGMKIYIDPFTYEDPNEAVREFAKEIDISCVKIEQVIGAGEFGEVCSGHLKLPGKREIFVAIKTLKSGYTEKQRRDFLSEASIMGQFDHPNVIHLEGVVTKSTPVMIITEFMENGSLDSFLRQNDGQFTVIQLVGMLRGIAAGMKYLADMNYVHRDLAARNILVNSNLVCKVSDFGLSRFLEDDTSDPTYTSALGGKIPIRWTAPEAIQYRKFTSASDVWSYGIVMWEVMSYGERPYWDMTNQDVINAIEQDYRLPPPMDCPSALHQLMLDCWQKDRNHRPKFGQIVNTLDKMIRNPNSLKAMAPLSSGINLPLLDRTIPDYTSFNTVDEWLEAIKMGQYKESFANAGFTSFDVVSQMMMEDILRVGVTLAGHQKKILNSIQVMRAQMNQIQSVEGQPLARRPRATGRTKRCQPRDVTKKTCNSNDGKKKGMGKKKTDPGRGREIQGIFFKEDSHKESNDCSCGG
Chain of Fyn (P06241 whole entry, looked up): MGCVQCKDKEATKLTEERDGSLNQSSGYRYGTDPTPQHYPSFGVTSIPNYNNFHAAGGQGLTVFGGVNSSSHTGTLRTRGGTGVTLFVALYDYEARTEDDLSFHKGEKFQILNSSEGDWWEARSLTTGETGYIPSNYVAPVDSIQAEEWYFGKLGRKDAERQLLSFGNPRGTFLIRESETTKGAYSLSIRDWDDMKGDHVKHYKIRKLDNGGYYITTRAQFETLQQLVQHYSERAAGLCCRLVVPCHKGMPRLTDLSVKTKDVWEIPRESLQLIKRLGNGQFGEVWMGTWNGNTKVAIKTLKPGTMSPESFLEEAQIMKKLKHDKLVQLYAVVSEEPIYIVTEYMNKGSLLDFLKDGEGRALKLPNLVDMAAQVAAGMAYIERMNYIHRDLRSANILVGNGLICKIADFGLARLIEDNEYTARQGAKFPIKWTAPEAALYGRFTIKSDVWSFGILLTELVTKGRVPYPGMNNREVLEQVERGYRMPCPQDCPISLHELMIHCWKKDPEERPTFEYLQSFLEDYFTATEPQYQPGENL
Chain of Hck (P08631 whole entry, looked up): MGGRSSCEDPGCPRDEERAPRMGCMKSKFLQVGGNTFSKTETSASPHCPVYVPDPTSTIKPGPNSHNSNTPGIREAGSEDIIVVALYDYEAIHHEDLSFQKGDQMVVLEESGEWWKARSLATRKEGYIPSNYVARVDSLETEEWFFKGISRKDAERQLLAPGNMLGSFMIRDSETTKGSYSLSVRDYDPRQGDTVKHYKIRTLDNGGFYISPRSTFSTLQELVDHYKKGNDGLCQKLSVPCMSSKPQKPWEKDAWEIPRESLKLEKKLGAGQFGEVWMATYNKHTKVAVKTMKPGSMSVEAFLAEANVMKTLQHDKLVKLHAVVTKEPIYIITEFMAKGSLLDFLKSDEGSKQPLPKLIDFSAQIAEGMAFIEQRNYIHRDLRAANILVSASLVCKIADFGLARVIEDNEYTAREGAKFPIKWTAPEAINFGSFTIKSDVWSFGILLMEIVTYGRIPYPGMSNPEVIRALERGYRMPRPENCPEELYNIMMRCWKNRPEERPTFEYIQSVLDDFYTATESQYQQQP
Chain of MERTK (Q12866 whole entry, looked up): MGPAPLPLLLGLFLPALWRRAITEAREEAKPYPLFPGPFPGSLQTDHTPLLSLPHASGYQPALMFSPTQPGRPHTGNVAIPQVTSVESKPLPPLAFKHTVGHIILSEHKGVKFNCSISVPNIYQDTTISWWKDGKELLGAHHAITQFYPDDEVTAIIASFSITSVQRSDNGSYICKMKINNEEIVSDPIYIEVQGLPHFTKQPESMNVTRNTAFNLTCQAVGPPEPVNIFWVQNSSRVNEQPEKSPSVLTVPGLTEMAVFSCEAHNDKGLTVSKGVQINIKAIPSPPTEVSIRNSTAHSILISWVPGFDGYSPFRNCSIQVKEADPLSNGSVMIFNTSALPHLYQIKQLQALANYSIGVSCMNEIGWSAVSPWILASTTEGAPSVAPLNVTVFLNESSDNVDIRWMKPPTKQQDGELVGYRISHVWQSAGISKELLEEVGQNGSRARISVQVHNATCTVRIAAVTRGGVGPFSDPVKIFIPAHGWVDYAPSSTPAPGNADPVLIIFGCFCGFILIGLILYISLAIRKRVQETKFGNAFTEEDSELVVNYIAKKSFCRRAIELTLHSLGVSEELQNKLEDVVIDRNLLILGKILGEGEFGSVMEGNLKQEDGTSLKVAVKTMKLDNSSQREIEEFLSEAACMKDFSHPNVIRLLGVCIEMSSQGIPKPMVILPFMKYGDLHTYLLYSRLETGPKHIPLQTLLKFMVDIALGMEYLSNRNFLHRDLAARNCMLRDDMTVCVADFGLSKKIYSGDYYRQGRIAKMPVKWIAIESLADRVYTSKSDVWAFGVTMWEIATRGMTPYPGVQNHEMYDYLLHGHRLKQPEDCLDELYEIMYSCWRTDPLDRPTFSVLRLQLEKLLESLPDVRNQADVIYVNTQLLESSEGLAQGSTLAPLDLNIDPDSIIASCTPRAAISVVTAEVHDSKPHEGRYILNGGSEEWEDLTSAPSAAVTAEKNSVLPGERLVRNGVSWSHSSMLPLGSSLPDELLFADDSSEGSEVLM

Sequence | SH2 binding enrichment (SHP2-C SH2) | SH2 binding enrichment (Grb2 SH2) | SH2 binding enrichment (c-Src SH2) | phosphorylation enrichment (Fes) | phosphorylation enrichment (MERTK) | phosphorylation enrichment (Hck) | phosphorylation enrichment (FGFR1) | phosphorylation enrichment (Fyn) | phosphorylation enrichment (EPHB1) | phosphorylation enrichment (c-Src) | phosphorylation enrichment (Fer (mouse)) | phosphorylation enrichment (Jak2) | phosphorylation enrichment (AncSZ) | phosphorylation enrichment (EPHB2) | phosphorylation enrichment (FGFR3) | phosphorylation enrichment (c-Abl (mouse))
FQCLRYIKQLG [SAMHD1_Y146_R143C] | 0.658 | 0.662 | 0.528 | 1.25 | 0.423 | 0.452 | 0.382 | 0.427 | 0.468 | 0.44 | 0.428 | 1.11 | 0.954 | 0.434 | 0.596 | 0.809
TSQSQYFSFRE [CCDC170_Y323] | 0.999 | 1.15 | 0.796 | 0.891 | 0.818 | 1.72 | 1.62 | 3.07 | 0.315 | 4.89 | 0.461 | 1.29 | 0.745 | 0.368 | 1.49 | 0.604
HRERPYGGGGG [FUS_Y526_R521H] | 1.05 | 1.17 | 1.18 | 0.714 | 0.557 | 0.439 | 0.553 | 0.454 | 0.483 | 0.523 | 0.407 | 0.386 | 0.487 | 0.265 | 0.449 | 0.556
QPAGNYSLSSV [ARFGAP3_Y473] | 1 | 0.812 | 0.486 | 0.946 | 0.93 | 0.715 | 0.414 | 0.424 | 0.866 | 0.798 | 0.623 | 0.874 | 0.985 | 0.638 | 0.75 | 0.996

More lines, main results first:

SH2 binding enrichment (SHP2-C SH2) | SH2 binding enrichment (Grb2 SH2) | SH2 binding enrichment (c-Src SH2) | Sequence | phosphorylation enrichment (Fes) | phosphorylation enrichment (MERTK) | phosphorylation enrichment (Hck) | phosphorylation enrichment (FGFR1) | phosphorylation enrichment (Fyn) | phosphorylation enrichment (EPHB1) | phosphorylation enrichment (c-Src) | phosphorylation enrichment (Fer (mouse)) | phosphorylation enrichment (Jak2) | phosphorylation enrichment (AncSZ) | phosphorylation enrichment (EPHB2) | phosphorylation enrichment (FGFR3) | phosphorylation enrichment (c-Abl (mouse))
0.614 | 0.773 | 0.401 | NSVLVYRNGDP [DCDC2_Y22_K17N] | 0.678 | 0.454 | 0.492 | 0.393 | 0.443 | 0.532 | 0.591 | 0.373 | 0.627 | 0.621 | 0.463 | 0.533 | 0.534
0.786 | 0.906 | 0.549 | SMEMKYLEEKN [ZAP70_Y451_G448E] | 1.47 | 0.48 | 0.548 | 0.535 | 0.706 | 0.825 | 0.609 | 0.572 | 1.22 | 1.15 | 0.659 | 1.07 | 1.17
0.589 | 0.776 | 0.403 | AHAGEYGAGAL [HBA1_Y25_E28G] | 0.539 | 0.395 | 0.49 | 0.365 | 0.405 | 0.376 | 0.489 | 0.384 | 0.608 | 0.575 | 0.434 | 0.485 | 0.616
0.998 | 0.85 | 0.923 | RQNNSYTCFTA [SLC20A2_Y386_R382Q_YF] | 0.898 | 0.938 | 0.544 | 0.663 | 0.537 | 0.819 | 0.712 | 0.751 | 0.951 | 1.04 | 0.658 | 0.904 | 0.802
